The target of the test is cytosolic domain of human Fis1 (Fis1_ΔTM, residues 1−123) (human, UniProt Q9Y3D6 1-123). Description: SPR. Background: SPR reads the build-up and loss of mass on a sensor chip optically.

B1: Bap31_CC2 D224K (domain or fragment)
chain: LDVGNAEVKLEEENRSLKADLQKLKDELASTKQKLEKAENQVLAMRKQSEGLTKEYKRLLEEHAKLQAAVDGPMDKKEE
In turn, B1 yielded a Kd of 156 µM.

As usually defined, the Kd is a measure of binding affinity in units of concentration. Read a low Kd as tighter binding.
